According to patent US9499823B2, “Constructs expressing chimeric receptors and use thereof for the controlled activation of defence response to pathogens in plants” (priority 2009, dated 2016):
“Also recorded” adds a separate entry of the source.

Columns and labels:
B. cinerea = assay: Lesion development in Arabidopsis plants inoculated with B. cinerea; format: in vivo; conditions: transgenic Arabidopsis vs Col-0 or Col-0 efr, 48 h post-inoculation
Method: (§1) (A) Growth of A. tumefaciens in N. tabacum tissues transiently expressing receptor proteins. Tobacco leaves were infiltrated with Agrobacterium carrying the indicated receptor constructs and the number of Agrobacterium colony-forming units (c.f.u.) in the tissues was analyzed immediately after infiltration (white bars) and after 24 h (gray bars). EFR and eJMC were used as positive and negative controls, respectively. For each receptor, three samples were analyzed in five independent experiments. Asterisks indicate statistically significant differences against control (Col-0 for WAK1 plants and Col-0 efr for WEG and EWAK plants). (B) Lesion development in Arabidopsis wild type (Col-0) and mutant Col-0 efr plants and in transgenic plants expressing WAK1, WEG and EWAK plants inoculated with B. cinerea at 48 h post-inoculation. Values are means±s.e.m. of at least 16 lesions. The same experiment was performed in a second independent transgenic line expressing WAK1 with similar results. Asterisks indicate statistically significant differences against control (Col-0 for WAK1 plants and Col-0 efr for WEG and EWAK plants).

[1] = system: Pseudomonas syringae DC3000; assay: Pseudomonas DC3000 infection of Arabidopsis Ws-0 plants by spraying; format: in vivo; conditions: transgenic Ws-0 plants vs Ws-0 wild type, 4 days post infection
Text: C) Pseudomonas DC3000 infections. (Left Panel) Symptoms disease of wild type and transformed plants after 4 days post infection. (Right panel) Growth of Pseudomonas syringae DC3000 after 4 day post infection. ***, p<0.005.
The authors therefore infected A. thaliana plants by spraying Pst DC3000 bacteria onto leaf surfaces. […] Higher resistance of eJMC plants, compared to Ws-0 wild-type plants, was found in all of three independent experiments.

[2] = system: transgenic Arabidopsis leaves; assay: Constitutive activation of defense responses (H2O2, callose) in transgenic plants; format: cell-based, Arabidopsis thaliana; conditions: no elicitor
Method: Leaves were stained with 3,3′-diaminobenzidine (DAB) for H2O2 visualization (upper panel) and with aniline blue for callose visualization (lower panel).
(§2) 3,3′-diaminobenzidine (DAB) staining, callose deposition and gene resistance analysis were assayed as described (Galletti et al., 2008). For measuring active oxygen species released by tobacco agroinfiltrated plants after elicitor treatment, the authors used a modified luminol-dependent assay (Gomez et al., 1999). Slices, corresponding to approximately 30 mg fresh weight, were transferred to assay tubes containing 1 μM flg22 or 10 μM elfl8 in aqueous solution supplied with 40 μM luminol (SIGMA). Chemo-luminescence was measured in a liquid scintillation counter (LS-6500, Beckman) after 5 and 15 min upon addition of elicitors.

[3] = system: ethylene biosynthesis in tobacco leaves; assay: Induction of ethylene biosynthesis in agroinfiltrated tobacco leaf explants; format: cell-based, Nicotiana tabacum; conditions: elfl8 10 μM, 2 h
Method: F) Induction of ethylene biosynthesis in agroinfiltrated tobacco leaves expressing the fluorescent EFR, FLS2, TMC, eJMC and eJMC^Y859A. NC: negative control, represented by agroinfiltrated leaf tissues expressing fluorescent EFR or FLS2 and elicited with flg22 or elfl8, respectively. Results are averages±standard error (n=3).
Excised infiltrated leaf sectors were stimulated for 2 h with water or the elicitor ([…] and 100 μg/ml for OGs). Values are means±s.e.m. (N=3).
E) Induction of ethylene biosynthesis in agroinfiltrated tobacco leaves expressing EFR, WAK1, WEG and EWAK. Each construct was stimulated for 2 h with elfl8 (10 μM) or OGs (100 μg/mL). NC: negative control, represented by agroinfiltrated leaf tissue expressing EFR or FLS2 when OGs or elfl8, respectively, were used for elicitation. Error bars indicate the standard error of three independent replicates.
(A) Induction of ethylene biosynthesis in agroinfiltrated tobacco explants expressing EFR, WAK1, WEG and EWAK. […] Agroinfiltrated leaf tissues expressing EFR or WEG and elicited with OGs or elfl8 respectively, represented our negative control. Values are means±s.e.m. (N=3). (B) Elicitor-induced gene expression in untransformed Col-0 and Col-0 efr plants, and in transgenic Arabidopsis Col-0 efr plants stably expressing WEG. Accumulation of At3g22270 and At4g37640 transcripts was analysed by semi-quantitative PCR, using the UBQ5 gene for normalization. Adult leaves were syringe-infiltrated with water, OGs (25 μg/ml) or elfl8 (10 μM) for 3 h. The experiment was repeated three times with similar results. The same experiment was performed in a second independent transgenic line expressing WEG with similar results.
Approximately 150 mg of tobacco agroinfiltrated leaf were cut in small slices and extensively washed with sterile distilled water. The explants were placed in sealed 10 mL flasks containing 2 mL of sterile water alone or supplemented with 100 mg L^−1 OGs, or 1 μM flg22 or 10 μM elfl8. 450 μl headspace samples were withdrawn from the vial after 2 h treatment and analyzed by gas chromatography-mass spectrometry using an Agilent 6850A gas chromatograph coupled to a 5973N quadrupole mass selective detector (Agilent Technologies, Palo Alto, Calif., USA). Chromatographic separations were carried out an HP Plot-Q fused-silica capillary column (30 m×0.32 mm i.d.) coated with polystyrene-divinylbenzene (film thickness 0.20 μm) as stationary phase. Injection mode: splitless at a temperature of 220° C. The initial temperature of the oven was held at 50° C. for 8 min then ramped to 220° C. at a rate of 15° C./min and held for 5 min. Helium was used as carrier gas at a constant flow of 1.0 ml/min. Mass spectra were collected both in full scan and in SIM mode monitoring the ions m/z m/z 26, m/z 27 and m/z 28 (ionization energy 70 eV; ion source 280° C.; ion source vacuum 10^−5 Torr).

[4] = system: Agrobacterium tumefaciens GV3101; assay: Growth of Agrobacterium in N. tabacum tissues transiently expressing receptor proteins; format: in vivo; conditions: 24 h after inoculation, tobacco tissues expressing the receptor, p<0.005
Method: F) Growth of Agrobacterium in N. tabacum tissues transiently expressing receptor proteins. Tobacco leaves were infiltrated with Agrobacterium expressing the indicated receptors and the number of Agrobacterium colony-forming units (c.f.u.) in the tissues was analyzed soon after infiltration (white bars) and 24 h (gray bars). EFR and eJMC were used as positive and negative controls, respectively. For each receptor, three samples were analyzed in five independent experiments. *, p<0.005.
as §1
(§3) Agrobacterium tumefaciens GV3101 strain infections was performed as described in Katagiri et al., (2002) and using a concentration of Agrobacterium corresponding at an OD600 of 1.0 in 10 mM MgCl2 and 600 μM acetosyringone. After 24 h of infiltration, serial dilution of Agrobacterium colonies were deposited on LB agar supplemented with gentamycin and rifampicin and grown for 2-3 days at 28° C. in the dark. At least 5 independent plants and 3 different leaves by plant, were used per experiment. Pectobacterium carotovorum subsp. carotovorum infections Pectobacterium carotovorum subsp. carotovorum (formely Erwinia carotovora; Gardan et al., 2003) (strain DMSZ 30169) was obtained from DSMZ GmbH (Germany). A liquid colture using 10 ml LB medium was prepared. After 16 h of growth at 28° C. on rotary shaker at 250 rpm, bacterial cells were harvested by centrifugation and the pellet was resuspended in 50 mM potassium phosphate buffer pH 7.0 corresponding to 5×10^7 CFU/ml.

[5] = system: oxidative burst in tobacco leaves; assay: Oxidative burst, luminol-dependent photon counting in agroinfiltrated tobacco leaf slices; format: cell-based, Nicotiana tabacum; conditions: 10 μM elfl8, after 15 min
Method: D) Oxidative burst in tobacco leaves transiently expressing eJMC, EFR and EWAK. Photon counting was realized using tobacco leaves slices in a solution of luminol and peroxidase, during treatment with 10 μM elfl8. eJMC- and EFR-expressing explants were used as a negative and a positive control, respectively. Experiment was repeated at least 6 times on two independent replicated.
(C) Oxidative burst in agroinfiltrated tobacco leaves expressing EWAK. Leaves expressing eJMC and EFR were used as a negative and a positive control, respectively. The burst was measured by photon counting using leaf slices incubated in a solution containing 10 μM elfl8, luminol and peroxidase. The experiment was repeated at least 6 times with two independent replicates.
as §2

[6] = system: Pectobacterium carotovorum subsp. carotovorum; assay: Infection assay with Pectobacterium carotovorum on transgenic Arabidopsis leaves; format: in vivo; conditions: transgenic Arabidopsis vs Col-0 or Col-0 efr, 24 h, 5×10^7 CFU/ml
Method: Inoculum concentration was 5×10^7 CFU/ml). Values are means±SE of at least 16 lesions. Asterisks indicate statistically significant differences against control plants (Col-0 or Col-0 efr), according to Student's t test (*, p<0.0005).
as §3, with “After 16 h of growth at 28° C. on rotary shaker at 250 rpm, bacterial cells were harvested by centrifugation and the pellet was resuspended in 50 mM potassium phosphate buffer pH 7.0 corresponding to 5×10^7 CFU/ml.” left out
For infection, fully developed leaves of 4 week old Arabidopsis plants were detached and placed in 0.8% agar Petri dishes. […] Symptoms were scored measuring the area of macerated tissue after 24 hour post inoculation at 22° C. and 12 h photoperiod. Area was measured by ImageJ software. […]

B1: EWAK: chimera: EFR ectodomain fused to the TM-iJM-kinase portion of WAK1, GFP-fused (protein)
chain: RFSNETDMQALLEFKSQVSENNKREVLASWNHSSPFCNWIGVTCGRRRERVISLNLGGFKLTGVISPSIGNLSFLRLLNLADNSFGSTIPQKVGRLFRLQYLNMSYNLLEGRIPSSLSNCSRLSTVDLSSNHLGHGVPSELGSLSKLAILDLSKNNLTGNFPASLGNLTSLQKLDFAYNQMRGEIPDEVARLTQMVFFQIALNSFSGGFPPALYNISSLESLSLADNSFSGNLRADFGYLLPNLRRLLLGTNQFTGAIPKTLANISSLERFDISSNYLSGSIPLSFGKLRNLWWLGIRNNSLGNNSSSGLEFIGAVANCTQLEYLDVGYNRLGGELPASIANLSTTLTSLFLGQNLISGTIPHDIGNLVSLQELSLETNMLSGELPVSFGKLLNLQVVDLYSNAISGEIPSYFGNMTRLQKLHLNSNSFHGRIPQSLGRCRYLLDLWMDTNRLNGTIPQEILQIPSLAYIDLSNNFLTGHFPEEVGKLELLVGLGASYNKLSGKMPQAIGGCLSMEFLFMQGNSFDGAIPDISRLVSLKNVDFSNNNLSGRIPRYLASLPSLRNLNLSMNKFEGRVPTTGVFRNATAVSVFGNTNICGGVREMQLKPCIVQASPRKRKPLSVRKKVVSGWTTILLVTTIGFLVILLGVACIQQRMKHLKDTKLREQFFEQNGGGMLTQRLSGAGPSNVDVKIFTEDGMKKATNGYAESRILGQGGQGTVYKGILPDNSIVAIKKARLGDSSQVEQFINEVLVLSQINHRNVVKLLGCCLETEVPLLVYEFITNGTLFDHLHGSMIDSSLTWEHRLKIAIEVAGTLAYLHSSASIPIIHRDIKTANILLDVNLTAKVADFGASRLIPMDKEELETMVQGTLGYLDPEYYNTGLLNEKSDVYSFGVVLMELLSGQKALCFKRPQSSKHLVSYFATATKENRLDEIIGGEVMNEDNLKEIQEAARIAAECTRLMGEERPRMKEVAAKLEALRVEKTKHKWSDQYPEENEHLIGGHILSAQGETSSSIGYDSIKNVAILDIETGR
modifications: left off: large carriers
resistance to B. cinerea infection (B. cinerea): not | development of disease symptoms / susceptibility to Pst DC3000 [1]: confers resistance | constitutive activation of defense responses (H2O2 levels, callose deposits) [2]: do not show constitutive activation of defense responses | ethylene accumulation upon stimulation with elfl8 [3]: did not | decrease in the number of living Agrobacterium cells [4]: 30% | oxidative burst upon treatment with elfl8 [5]: produced an oxidative burst; also recorded: robust oxidative burst | resistance to Pectobacterium carotovorum subsp. carotovorum [6]: increased resistance; also recorded: confers resistance
